Biological target: T1, yeast eIF3j (Hcr1) (yeast, UniProt Q05775 1-265)
T1 construct: source: E. coli Rosetta2 (DE3), pGEX-6P-1, purified (GSTrap, PreScission cleavage, second glutathione step, Superdex S-75)
Assay: ITC; VP-ITC; 20 µL aliquots of 229 µM eIF3b-RRM^76–170 injected into the cell with 10 µM Hcr1; 200 mM NaCl, 10 mM Hepes pH 7.5, 5% glycerol; single binding site model
Conditions: both partners purified

T1 sequence (Q05775 whole entry): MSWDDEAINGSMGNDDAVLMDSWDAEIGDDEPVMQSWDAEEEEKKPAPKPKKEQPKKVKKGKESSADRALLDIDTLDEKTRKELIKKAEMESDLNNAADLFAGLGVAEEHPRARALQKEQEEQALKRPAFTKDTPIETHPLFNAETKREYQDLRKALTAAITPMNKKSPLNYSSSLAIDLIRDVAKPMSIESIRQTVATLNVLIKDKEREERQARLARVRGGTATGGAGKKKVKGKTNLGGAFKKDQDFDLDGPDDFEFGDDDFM

- Kd: 7.5 ± 0.5 µM
- dH: -9.28 ± 0.217 kcal/mol
- stoichiometry N: ~1
B1: yeast eIF3b-RRM, residues 76-170 (domain or fragment, UniProt P06103 76-170, looked up)
chain: DQYIVVNGAPVIPSAKVPVLKKALTSLFSKAGKVVNMEFPIDEATGKTKGFLFVECGSMNDAKKIIKSFHGKRLDLKHRLFLYTMKDVERYNSDD
notes: also called eIF3b-RRM^76–170; RRM^76–170; source: E. coli Rosetta2 (DE3), pGEX-6P-1, purified (GSTrap, PreScission cleavage, Superdex S-75)
